In PMC6908968 (Cell, 2019):

T1: thermolysin-cleaved EBOV GP on Jurkat-GP cells (cleaved GP) (Zaire ebolavirus, Makona (GP1 core …, strain))
T1 chain 1: not shown
T1 chain 2: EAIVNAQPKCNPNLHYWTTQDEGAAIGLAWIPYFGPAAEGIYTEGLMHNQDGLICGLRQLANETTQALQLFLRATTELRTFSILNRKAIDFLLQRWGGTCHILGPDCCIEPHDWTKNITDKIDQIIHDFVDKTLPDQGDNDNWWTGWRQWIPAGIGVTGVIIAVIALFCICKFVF


Columns and labels:
[1] = biological target: T1, thermolysin-cleaved EBOV GP on …
[2] = biological target: EBOV GP ectodomain residues 1-636 (GPec) (Zaire ebolavirus, strain  …, UniProt Q05320)

Binder	binding result [1]	binding result [2]
9.1.c1426 (antibody, V domains shown) VH: QVQLQESGPGLVKPSQTLSLTCTVSGGSISSGDYYWSWIRQPPGKGLEWIGYIYYSGSTYYNPSLKSRVTISVDTSKNQFSLKLSSVTAADTAVYYCARGYSSGWYLAYFQHWGQGTLVTVSS VL: not shown	binds	
15.0.c942 (antibody, V domains shown) VH: EVQLVESGGGVVRPGGSLRLTCAASGFIFENYGMSWVRQAPGKGLEWVSALNWNGVNTYYSDSVKGRFTISRDNAKNSLYLQMNSLSAEDTAFYYCAVHYYDSSGIYYLDDWGQGTLVTVSS VL: QSVLTQPPSVSAAPGQKVSISCSGSSSNIGKNYVYWYQHVPGAAPKLLIYENDKRPSGIPDRFSGSKSGTSATLDITGLQTGDEAEYYCATWQSGLSAHVVFGGGTKLTVL	binds	
5.6.c4172 (antibody, V domains shown) VH: QVQLQESGPGLVKPSGTLSLTCAVSGGSISSHYWWSWVRQSPGKGLEWLGEIYQIGSTNYNPSLKSRVSMSVDESKNQFSLSLTSVTAADTAVYYCARDQGHWNPGKGAFDIWGQGALVTVSS VL: QSVLTQPPSVSAAPGQRVTISCSGSNSNIGKNFVSWYQQFPGTAPKLLIYDNDKRPSGIPDRFSGSKSGTSATLGITGLQTGDEADYFCATWDTTLSAWVFGGGTKVTVL	binds	
15.0.c778 (antibody, V domains shown) VH: QVQLHESGPGVVKVSETLSLTCTLSGGSINGNSWSWIRQTAGKGLEWIGRVYTSGSPNYNPSLKSRLTMSIVTSKNQFSLTLRSVTAADTAIYYCARDFVVIDPTRVVDDYDAFDVWGRGTVVTVSS VL: DIQLTQSPSILSASVGDRVTITCRASQSVSRYLAWYQQKPGNAPKLLIYKVSTLQSGVPSRFSGSASGTEFTLTINSLQPDDFATYYCHQYNGYLYTFGQGTKVDVK	binds	
15.0.c865 (antibody, V domains shown) VH: EVQLVESGGSVVRPGGSLRLSCAASVFTFENYGMSWVRQTPGKGLEWVSSINWNGANTGYADSVKGRFTVSRDNAKNSLYLQMNSLRAEDTALYYCARHRYDSSGQWYFDYWGQGTLVTVSS VL: SYELTQPPSVSVSPGQTARITCSGDALPKKYAYWYQQKPGQAPVLVIYEDSKRPSGIPERFSGSRSGTMATLTISGAQVADEADYYCYSPDSSGNHRIFGTGTKVTVL	binds	
5.6.c3010 (antibody, V domains shown) VH: EVQLVESGGGLVQPGGSLRLSCAASGLTVSSNYMNWVRQAPGKGLEWVSVIYSGGRTYYADSVKGRFTISRDISKNTVYLEMNSLRADDTAVYYCARIYFFYNGMDVWGQGTTVTVSP VL: EILLTQSPGTLSLSPGERATLSCRASQSVSSNYLAWFQQKPGQAPRLLIYGASSRATGIPDRFSGSGSGTDFTLTISRLEPEDFALYYCQQYGSSPPWTFGQGTKVEMK	binds	
15.0.c835 (antibody, V domains shown) VH: not shown VL: DIQLTQSPSFLSASVGDRVTITCRASQGISSYLAWYQQKPGKAPKLLIYAASTLQSGVPSRFSGSGSGTEFTLTISSLQPEDFATYYCQQLNSYGYTFGQGTKLEIK	binds	
5.6.c3169 (antibody, V domains shown) VH: QVQLVQSGTEVKKPGASVRVSCKSSGYTFTNYGINWVRQAPGQGLEWLGWISTYNDNINYAQKFQGRVTMTTDTSTSTAYMELRSLRSDDTAIYYCAKDSSAYWDLLFYGMDVWGQGTTVTVSS VL: DIQLTQSPSFVSASVGDRVTITCRASQGISSSLAWYQQKPGKAPNLLIYAASALQSGVPSRFSGSGSGTDFTLTISSLQPEDFATYFCQQLNSYPYTFGQGTKLEIK		binds
5.6.c3242 (antibody, V domains shown) VH: QVQLQESGPGLVKPSATLSLTCTVSGGSISSDHWSWIRQPPGKGLEWIGHVIYSGSTNYIPSLKSRVTISIDTSKNQFSLKLRSVTAADTAVYYCARGGGWYDNWFDPWGQGTLVTVSS VL: QSALTQPASVSGSPGQSIIISCTGTSNDVGSYNLVSWYQQHPGKAPKLMIYEGNKRPSGVSNRFSGSKSGNAASLKISGLQSEDEAEYYCCSYAGSGTWVFGGGTKLTVL		binds
15.0.c912 (antibody, V domains shown) VH: QVQLQESGPGLVKPSQTLSLTCTVSGGSISSGGYYWNWVRQHPGKGLEWIGYISYSGSTFYSGSTYYNPSLKSRITISLDTSKNQFSLNLSSVTAADTAVYYCARDRGDPGGYYNYGMDVWGQGTTVTVSS VL: QSVLTQPPSASGTPGQRVTISCSGSSSNIGSHYVYWYQQLSGTAPKLLIYRNNERPSGVPDRFSGSKSGTSASLAISGLRSEDEADYYCATWDDSQRVFGGGTKLTVL	binds	
5.6.c2902 (antibody, V domains shown) VH: QVQLQESGPGLVKPSQTLSLTCTVSGASINSRDSYWSWIRQPPGKGLEWIGYIYYSGSTYSNPSLKSRVTMSVDTSKNQISLQLSSVTAADTAVYYCARVEGNEILFSLWYFDIWGRGTPVSVSS VL: QSVLTQPPSVSAAPGQKVTISCSGSSSNIGNNYVSWYQQLPGTAPKLLIYDNNKRPSGIPDRFSGSKSGTSATLGITGLQTGDEADYYCGSWDSSLSAGHWVFGGGTKLTVL		binds
15.0.c819 (antibody, V domains shown) VH: QVQLVESGGGVVQPGRSLRLSCAASGFTFSSYAMHWVRQAPGKGLEWVAVISYDGSNKYYADSVKGRFTISRDNSKNTLYLQMNSLRAEDTAVYYCARDLLWFGELLFREYYMDVWGKGTTVTVSS VL: not shown	binds	
15.0.c846 (antibody, V domains shown) VH: EVQLVESGGGLVQPGGSLRLSCAASGFTFSSYWMSWVRQAPGKGLEWVANIKQDGSEKYYVDSVKGRFTISRDNAKNSLYLQMNSLRAEDTAVYYCARTRDSSSSFYYYYYMDVWGKGTTVTVSS VL: not shown	binds	
15.0.c779 (antibody, V domains shown) VH: EVQMVESGGGLVKPGGSLRLSCAASGFIFSNAWMSWVRQAPGKGLEWVGRIKGKTDGGTTDYAAPVKGRVTISRDDSKNTLFLQMNSLKTEDTAVYFCTADVLPAATRGVYYYYYYMDVWGKGTTVTVSS VL: QSALTQPASVSGSPGQSITISCTGTSSDVGGYNYVSWYQQHPGKAPKLMIYDVSKRPSGVSNRFSGSKSGNTASLTISGLQAEDEADYYCCSYTGRSTVVFGGGTTLTVL	binds	
15.0.c780 (antibody, V domains shown) VH: EVQLVESGGGLVKPGGSLRLSCAASGFTFSNAWMSWVRQAPGKGLEWVGRIKGKTDGGTTDYAAPVRGRFTISRDDSKNMLYLQMNSLKTEDTAIYYCTADVIPAATRGVYYYYYYMDVWGEGTTVAVSS VL: QSALTQPASVSGSPGQSITISCTGTSSDVGGYNYVSWYQQHPGKAPKLMIYDVSKRPSGLSNRFSGSKSGNTASLTISGLQAEDEADYYCCSYARSSTVVFGGGTKVTVL	binds	
5.6.c2647 (antibody, V domains shown) VH: QDQLVQSGAEVKKPGASVKVSCKASGYSFTGHYIHWVRRAPGRGLEWMGWINPDSGGTNYAQKFQGWVSMTRDTSISTAYMELSSLKSDDTAVYYCARGITMICDLWGQGTQVTVSS VL: not shown	binds	
15.0.c800 (antibody, V domains shown) VH: EDQLLESGGGLVQPGGSLRLSCAVSGFTFSGYDLSWVRQAPGKGLEWVSIFSGSGGRKYYADSVKGRFTLSIDNSKNTLYLQMNSLRAEDTAVYYCAGDSSGYNNERMYYTYYMDVWGKGTTVTVSS VL: DIQMTQSPSSVSASVGDRVIITCRASQGISSWLAWYQQKPGKAPKLLIYAASSLQSGVPSRFSGSGSGTDFTLTISSLQPEDFATYYCQQANSFPLSFGGGTKVEIK	binds	
15.0.c830 (antibody, V domains shown) VH: EEQLLESGGGLVQPGGSLRLSCTVSGFTFSGYDMSWVRQAPGKGLEWVSLLSASGGGKYYADSVRGRFTISRDNSKNTMYLEMNSLRADDTAIYYCATDSSGYNYERLYYTYYMDVWGRGTTVSVSS VL: DIQMTQSPSSVSASVGDRVTITCRASQGISVWLAWYQQKPGKAPKLLIHAASSLQSGVPSRFSGSGSGTDFSLTISSLQPEDFATYYCQQANSFPLTFGGGTKVEIK	binds	
5.6.c2617 (antibody, V domains shown) VH: EVQLVESGGGLVQPGGSLRLSCVASGFTFSSYEMDWVRQAPGKGLEWVSYIGSSGSTIYYADSVKGRFTISRDNAKNSLYLQMNSLRAEDTAVYYCARDTETTGLYYYGMDVWGQGTTVTVSA VL: DIQMTQSPSSVSASVGDRVTITCRASQGISRWLAWYQQKPGKAPKLLIYGTSSLQSGVPSRFSGSGSGTDFTLTISSLQPEDFATYYCQQANSFPFTFGPGTRVDIK		binds
15.0.c792 (antibody, V domains shown) VH: EVQLVESGGGLVQPGGSLRLSCAASGFTFSSYSMNWVRQAPGKGLEWVSYISSSSSTIYYADSVKGRFTISRDNAKNSLYLQMNSLRAEDTAVYYCARESPTYYDFWSGYSDYWGQGTLVTVSS VL: NFMLTQPHSVSESPGKTVTISCTRSSGSIASNYVQWYQQRPGSSPTTVIYEDNQRPSGVPDRFSGSIDSSSNSASLTISGLKTEDEADYYCQSYDSSNRVFGGGTKLTVL	binds	
5.6.c3387 (antibody, V domains shown) VH: QLQLQESGPRLVKPSETLSLTCTVSGGSINRNSYYWGWIRQPPGKGLEWIGTIYYSGSPYYNPSLKSRVTISVDTSKNQFSLKLDSVTAADTALYFCASLWGWNDVGWFDSWGQGTLVTVSS VL: EIVLTQSPGTLSLSPGERATLSCRASQSVSSGYLAWYQQKPGQAPRLLIYGASIRAAGIPDRFSGSGSGTDFTLTISRLEPEDFAVYFCQQYGTSPLTFGPGTTVDIK	binds	
5.6.c2875 (antibody, V domains shown) VH: EVQLVESGGGVVQPGGSLRLSCAASGFTLRNFDMHWVRQVTGKGLEWVSGIGTAGDTYYPDSVKGRFTISRENAKNSLYLQMNSLRAEDTAVYYCARARWLQFDNWGQGALVTVSS VL: EIVLTQSPGTLSLSPGERATLSCKASQRVTSNFLAWYQQTPGQAPRLLIYSASSRATGIPDRFSGSGSGTDFTLTISRLEPEDFAVYYCQQYRSSRYTFGQGTKLEIK		binds
9.1.c1410 (antibody, V domains shown) VH: EVQLVESGGGLVKPGGSLRLSCAASGFTFSSYSMNWVRQAPGKGLEWVSSISSSSSYIYYADSVKGRFTISRDNAKNSLYLQMNSLRAEDTAVYYCARDLSEYQLLLSYFDYWGQGTLVTVSS VL: not shown	binds	
